Test results as given in the supplement of paper PMC5998384.

What was measured:
HeLa Kyoto [1] = test: solubility change mitosis vs G1/S (difference of NP-40 vs SDS log2 ratios) (log2 ratio difference); higher = more soluble in mitosis
HeLa Kyoto [2] = test: solubility in G1/S (NP-40 vs SDS abundance) (log2 ratio); higher = more soluble; settings: cell cycle stage: G1/S
HeLa Kyoto [3] = test: thermal stability score vs G1/S (z-score of summed log2 fold changes over temperatures); higher = more thermally stable than in G1/S
HeLa Kyoto [4] = test: melting temperature (median over replicates), in situ; higher = more thermally stable
[5] = cell cycle stage: early G1 (4.5 h after nocodazole release)
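Wherever melting temperature (median over replicates), in situ is given: HeLa Kyoto cells synchronized by double thymidine or nocodazole block, proteins quantified by TMT10plex mass spectrometry, three independent biological replicates.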
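Wherever solubility change mitosis vs G1/S (difference of NP-40 vs SDS log2 ratios) is given: synchronized HeLa Kyoto cells (double thymidine block for G1/S, nocodazole release for mitosis), protein amounts in NP-40 versus SDS lysates quantified by mass spectrometry, three biological replicates.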
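Wherever solubility in G1/S (NP-40 vs SDS abundance) is given: HeLa Kyoto cells arrested at G1/S by double thymidine block, proteins quantified by TMT10plex mass spectrometry in mild NP-40 versus SDS extracts, three biological replicates.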
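Wherever thermal stability score vs G1/S (z-score of summed log2 fold changes over temperatures) is given: synchronized HeLa Kyoto cells, proteins quantified by TMT10plex mass spectrometry, three biological replicates, mitosis taken 0.5 h after nocodazole release, G1/S directly after double thymidine block.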

Sequence	solubility change mitosis (log2) (HeLa Kyoto [1])	solubility in G1/S (log2) (HeLa Kyoto [2])	thermal stability score (HeLa Kyoto [3]; [5])	thermal stability score (HeLa Kyoto [3]; cell cycle stage: mitosis)	melting temperature (HeLa Kyoto [4]; cell cycle stage: G1/S)	melting temperature (HeLa Kyoto [4]; cell cycle stage: mitosis)
MEVKGKKQFTGKSTKTAQEKNRFHKNSDSGSSKTFPTRKVAKEGGPKVTSRNFEKSITKLGKKGVKQFKNKQQGDKSPKNKFQPANKFNKKRKFQPDGRSDESAAKKPKWDDFKKKKKELKQSRQLSDKTNYDIVVRAKQMWEILRRKDCDKEKRVKLMSDLQKLIQGKIKTIAFAHDSTRVIQCYIQYGNEEQRKQAFEELRDDLVELSKAKYSRNIVKKFLMYGSKPQIAEIIRSFKGHVRKMLRHAEASAIVEYAYNDKAILEQRNMLTEELYGNTFQLYKSADHRTLDKVLEVQPEKLELIMDEMKQILTPMAQKEAVIKHSLVHKVFLDFFTYAPPKLRSEMIEAIREAVVYLAHTHDGARVAMHCLWHGTPKDRKVIVKTMKTYVEKVANGQYSHLVLLAAFDCIDDTKLVKQIIISEIISSLPSIVNDKYGRKVLLYLLSPRDPAHTVREIIEVLQKGDGNAHSKKDTEVRRRELLESISPALLSYLQEHAQEVVLDKSACVLVSDILGSATGDVQPTMNAIASLAATGLHPGGKDGELHIAEHPAGHLVLKWLIEQDKKMKENGREGCFAKTLVEHVGMKNLKSWASVNRGAIILSSLLQSCDLEVANKVKAALKSLIPTLEKTKSTSKGIEILLEKLST [PUM3]	0.758	-1.05	1.46	3.65	46.6 °C	50 °C
MEVKPPPGRPQPDSGRRRRRRGEEGHDPKEPEQLRKLFIGGLSFETTDDSLREHFEKWGTLTDCVVMRDPQTKRSRGFGFVTYSCVEEVDAAMCARPHKVDGRVVEPKRAVSREDSVKPGAHLTVKKIFVGGIKEDTEEYNLRDYFEKYGKIETIEVMEDRQSGKKRGFAFVTFDDHDTVDKIVVQKYHTINGHNCEVKKALSKQEMQSAGSQRGRGGGSGNFMGRGGNFGGGGGNFGRGGNFGGRGGYGGGGGGSRGSYGGGDGGYNGFGGDGGNYGGGPGYSSRGGYGGGGPGYGNQGGGYGGGGGYDGYNEGGNFGGGNYGGGGNYNDFGNYSGQQQSNYGPMKGGSFGGRSSGSPYGGGYGSGGGSGGYGSRRF [HNRNPA3]	0.411	-0.252	2.6	4.71	47.8 °C	49.3 °C
MEVSGPEDDPFLSQLHQVQCPVCQQMMPAAHINSHLDRCLLLHPAGHAEPAAGSHRAGERAKGPSPPGAKRRRLSESSALKQPATPTAAESSEGEGEEGDDGGETESRESYDAPPTPSGARLIPDFPVARSSSPGRKGSGKRPAAAAAAGSASPRSWDEAEAQEEEEAVGDGDGDGDADADGEDDPGHWDADAAEAATAFGASGGGRPHPRALAAEEIRQMLQGKPLADTMRPDTLQDYFGQSKAVGQDTLLRSLLETNEIPSLILWGPPGCGKTTLAHIIASNSKKHSIRFVTLSATNAKTNDVRDVIKQAQNEKSFFKRKTILFIDEIHRFNKSQQDTFLPHVECGTITLIGATTENPSFQVNAALLSRCRVIVLEKLPVEAMVTILMRAINSLGIHVLDSSRPTDPLSHSSNSSSEPAMFIEDKAVDTLAYLSDGDARAGLNGLQLAVLARLSSRKMFCKKSGQSYSPSRVLITENDVKEGLQRSHILYDRAGEEHYNCISALHKSMRGSDQNASLYWLARMLEGGEDPLYVARRLVRFASEDIGLADPSALTQAVAAYQGCHFIGMPECEVLLAQCVVYFARAPKSIEVYSAYNNVKACLRNHQGPLPPVPLHLRNAPTRLMKDLGYGKGYKYNPMYSEPVDQEYLPEELRGVDFFKQRRC [WRNIP1]	-0.0694	0.228	2.61	5.06	47.5 °C	49.3 °C
MFCVTPPELETKMNITKGGLVLFSANSNSSCMELSKKIAERLGVEMGKVQVYQEPNRETRVQIQESVRGKDVFIIQTVSKDVNTTIMELLIMVYACKTSCAKSIIGVIPYFPYSKQCKMRKRGSIVSKLLASMMCKAGLTHLITMDLHQKEIQGFFNIPVDNLRASPFLLQYIQEEIPDYRNAVIVAKSPASAKRAQSFAERLRLGIAVIHGEAQDAESDLVDGRHSPPMVRSVAAIHPSLEIPMLIPKEKPPITVVGDVGGRIAIIVDDIIDDVDSFLAAAETLKERGAYKIFVMATHGLLSSDAPRRIEESAIDEVVVTNTIPHEVQKLQCPKIKTVDISMILSEAIRRIHNGESMSYLFRNIGLDD [PRPSAP2]	-0.121	0.117	-0.303	-0.671	57.5 °C	57.4 °C
MFEEKASSPSGKMGGEEKPIGAGEEKQKEGGKKKNKEGSGDGGRAELNPWPEYIYTRLEMYNILKAEHDSILAEKAEKDSKPIKVTLPDGKQVDAESWKTTPYQIACGISQGLADNTVIAKVNNVVWDLDRPLEEDCTLELLKFEDEEAQAVYWHSSAHIMGEAMERVYGGCLCYGPPIENGFYYDMYLEEGGVSSNDFSSLEALCKKIIKEKQAFERLEVKKETLLAMFKYNKFKCRILNEKVNTPTTTVYRCGPLIDLCRGPHVRHTGKIKALKIHKNSSTYWEGKADMETLQRIYGISFPDPKMLKEWEKFQEEAKNRDHRKIGRDQELYFFHELSPGSCFFLPKGAYIYNALIEFIRSEYRKRGFQEVVTPNIFNSRLWMTSGHWQHYSENMFSFEVEKELFALKPMNCPGHCLMFDHRPRSWRELPLRLADFGVLHRNELSGALTGLTRVRRFQQDDAHIFCAMEQIEDEIKGCLDFLRTVYSVFGFSFKLNLSTRPEKFLGDIEVWDQAEKQLENSLNEFGEKWELNSGDGAFYGPKIDIQIKDAIGRYHQCATIQLDFQLPIRFNLTYVSHDGDDKKRPVIVHRAILGSVERMIAILTENYGGKWPFWLSPRQVMVVPVGPTCDEYAQKVRQQFHDAKFMADIDLDPGCTLNKKIRNAQLAQYNFILVVGEKEKISGTVNIRTRDNKVHGERTISETIERLQQLKEFRSKQAEEEF [TARS]	-0.144	-0.0551	0.00611	-0.985	51.9 °C	51.6 °C
MFGKRKKRVEISAPSNFEHRVHTGFDQHEQKFTGLPRQWQSLIEESARRPKPLVDPACITSIQPGAPKTIVRGSKGAKDGALTLLLDEFENMSVTRSNSLRRDSPPPPARARQENGMPEEPATTARGGPGKAGSRGRFAGHSEAGGGSGDRRRAGPEKRPKSSREGSGGPQESSRDKRPLSGPDVGTPQPAGLASGAKLAAGRPFNTYPRADTDHPSRGAQGEPHDVAPNGPSAGGLAIPQSSSSSSRPPTRARGAPSPGVLGPHASEPQLAPPACTPAAPAVPGPPGPRSPQREPQRVSHEQFRAALQLVVDPGDPRSYLDNFIKIGEGSTGIVCIATVRSSGKLVAVKKMDLRKQQRRELLFNEVVIMRDYQHENVVEMYNSYLVGDELWVVMEFLEGGALTDIVTHTRMNEEQIAAVCLAVLQALSVLHAQGVIHRDIKSDSILLTHDGRVKLSDFGFCAQVSKEVPRRKSLVGTPYWMAPELISRLPYGPEVDIWSLGIMVIEMVDGEPPYFNEPPLKAMKMIRDNLPPRLKNLHKVSPSLKGFLDRLLVRDPAQRATAAELLKHPFLAKAGPPASIVPLMRQNRTR [PAK4]	-0.000436	0.0713	0.186	0.111	51.3 °C	50.5 °C
MFKKFDEKENVSNCIQLKTSVIKGIKNQLIEQFPGIEPWLNQIMPKKDPVKIVRCHEHIEILTVNGELLFFRQREGPFYPTLRLLHKYPFILPHQQVDKGAIKFVLSGANIMCPGLTSPGAKLYPAAVDTIVAIMAEGKQHALCVGVMKMSAEDIEKVNKGIGIENIHYLNDGLWHMKTYK [MCTS1]	-0.0597	0.267	-1.29	-1.6	54.8 °C	54.5 °C
MFLVGLTGGIASGKSSVIQVFQQLGCAVIDVDVMARHVVQPGYPAHRRIVEVFGTEVLLENGDINRKVLGDLIFNQPDRRQLLNAITHPEIRKEMMKETFKYFLRGYRYVILDIPLLFETKKLLKYMKHTVVVYCDRDTQLARLMRRNSLNRKDAEARINAQLPLTDKARMARHVLDNSGEWSVTKRQVILLHTELERSLEYLPLRFGVLTGLAAIASLLYLLTHYLLPYA [DCAKD]	-0.182	-0.0828	-0.154	0.0944	51.7 °C	50.9 °C
MFRAAAPGQLRRAASLLRFQSTLVIAEHANDSLAPITLNTITAATRLGGEVSCLVAGTKCDKVAQDLCKVAGIAKVLVAQHDVYKGLLPEELTPLILATQKQFNYTHICAGASAFGKNLLPRVAAKLEVAPISDIIAIKSPDTFVRTIYAGNALCTVKCDEKVKVFSVRGTSFDAAATSGGSASSEKASSTSPVEISEWLDQKLTKSDRPELTGAKVVVSGGRGLKSGENFKLLYDLADQLHAAVGASRAAVDAGFVPNDMQVGQTGKIVAPELYIAVGISGAIQHLAGMKDSKTIVAINKDPEAPIFQVADYGIVADLFKVVPEMTEILKKK [ETFA]	-0.02	0.455	-3.45	-1.76	54.1 °C	53.6 °C
MFRRKLTALDYHNPAGFNCKDETEFRNFIVWLEDQKIRHYKIEDRGNLRNIHSSDWPKFFEKYLRDVNCPFKIQDRQEAIDWLLGLAVRLEYGDNAEKYKDLVPDNSKTADNATKNAEPLINLDVNNPDFKAGVMALANLLQIQRHDDYLVMLKAIRILVQERLTQDAVAKANQTKEGLPVALDKHILGFDTGDAVLNEAAQILRLLHIEELRELQTKINEAIVAVQAIIADPKTDHRLGKVGR [C14ORF166]	0.329	0.0935	-1.08	-0.0878	50.1 °C	51.3 °C
MFRYESLEDCPLDEDEDAFQGLGEEDEEIDQFNDDTFGSGAVDDDWQEAHERLAELEEKLPVAVNEQTGNGERDEMDLLGDHEENLAERLSKMVIENELEDPAIMRAVQTRPVLQPQPGSLNSSIWDGSEVLRRIRGPLLAQEMPTVSVLEYALPQRPPQGPEDDRDLSERALPRRSTSPIIGSPPVRAVPIGTPPKQMAVPSFTQQILCPKPVHVRPPMPPRYPAPYGERMSPNQLCSVPNSSLLGHPFPPSVPPVLSPLQRAQLLGGAQLQPGRMSPSQFARVPGFVGSPLAAMNPKLLQGRVGQMLPPAPGFRAFFSAPPSATPPPQQHPPGPGPHLQNLRSQAPMFRPDTTHLHPQHRRLLHQRQQQNRSQHRNLNGAGDRGSHRSSHQDHLRKDPYANLMLQREKDWVSKIQMMQLQSTDPYLDDFYYQNYFEKLEKLSAAEEIQGDGPKKERTKLITPQVAKLEHAYKPVQFEGSLGKLTVSSVNNPRKMIDAVVTSRSEDDETKEKQVRDKRRKTLVIIEKTYSLLLDVEDYERRYLLSLEEERPALMDDRKHKICSMYDNLRGKLPGQERPSDDHFVQIMCIRKGKRMVARILPFLSTEQAADILMTTARNLPFLIKKDAQDEVLPCLLSPFSLLLYHLPSVSITSLLRQLMNLPQSAATPALSNPHLTAVLQNKFGLSLLLILLSRGEDLQSSDPATESTQNNQWTEVMFMATRELLRIPQAALAKPISIPTNLVSLFSRYVDRQKLNLLETKLQLVQGIR [PATL1]	-0.0674	0.255	-0.863	0.327	49.2 °C	48.5 °C
